Consider one substance from patent publication CN1934266A.

Holding throughout (assay): ELISA, growth factor coated at 10 μg/ml, antibody at 10 μg/ml, mean of duplicates
(In general: In an ELISA, binding on a coated surface is turned into a signal by an enzyme label.)

The target in experiment [1] is 激活蛋白B (R&D Systems 659-AB) (UniProt P09529).
The target in experiment [2] is TGF-a (R&D Systems 239-A) (UniProt P01135).
Experiment [3] has as its target BMP-2 (R&D Systems 355-BEC/CF) (UniProt P12643).
In experiment [4] the target is TGF-b2 (Peprotech 100-35) (UniProt P61812).
Experiment [5] has as its target TGF-b1 (Peprotech 100-21R) (UniProt P01137).
Experiment [6] has as its target 重组小鼠肌肉生长抑素(R&D systems，目录号788-G8/CF) (mouse) (UniProt O08689).
For experiment [7], the target named is BMP-6 (R&D Systems 507-BP) (UniProt P22004).
Experiment [8] concerns the target IGF-1 (R&D Systems 291-G1) (UniProt P05019).
In experiment [9] the target is 激活蛋白A (R&D Systems 338-AC) (UniProt P08476).
Experiment [10] addresses 重组人GDF-11(Peprotech公司，目录号120-11) (human) (UniProt O95390).
The target in experiment [11] is BMP-7 (R&D Systems 354-BP) (UniProt P18075).
The target in experiment [12] is BMP-5 (R&D Systems 615-BM) (UniProt P22003).
Sequence of UniProt P22003 (P22003 317-454 limits assumed): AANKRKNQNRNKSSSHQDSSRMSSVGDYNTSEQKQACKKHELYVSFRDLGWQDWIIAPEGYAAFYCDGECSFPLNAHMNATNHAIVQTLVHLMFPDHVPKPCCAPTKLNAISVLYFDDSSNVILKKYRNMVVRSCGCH

Sequence of UniProt O95390 (O95390 299-407 limits assumed): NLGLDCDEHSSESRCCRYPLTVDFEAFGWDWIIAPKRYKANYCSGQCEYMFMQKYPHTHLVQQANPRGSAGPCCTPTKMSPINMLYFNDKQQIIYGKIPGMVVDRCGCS
Sequence of UniProt P61812 (P61812 303-414 limits assumed): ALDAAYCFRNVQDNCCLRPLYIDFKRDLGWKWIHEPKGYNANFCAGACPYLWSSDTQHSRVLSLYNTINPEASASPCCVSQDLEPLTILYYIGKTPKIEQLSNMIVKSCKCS
Sequence of UniProt P09529 (P09529 293-407 limits assumed): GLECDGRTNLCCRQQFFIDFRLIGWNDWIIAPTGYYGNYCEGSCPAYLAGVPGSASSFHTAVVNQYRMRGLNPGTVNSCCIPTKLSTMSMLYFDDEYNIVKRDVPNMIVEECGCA
Sequence of UniProt O08689 (O08689 268-376): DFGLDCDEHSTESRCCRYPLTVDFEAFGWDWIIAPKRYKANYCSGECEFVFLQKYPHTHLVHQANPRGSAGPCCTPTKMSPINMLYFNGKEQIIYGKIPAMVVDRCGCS
Sequence of UniProt P08476 (P08476 311-426 limits assumed): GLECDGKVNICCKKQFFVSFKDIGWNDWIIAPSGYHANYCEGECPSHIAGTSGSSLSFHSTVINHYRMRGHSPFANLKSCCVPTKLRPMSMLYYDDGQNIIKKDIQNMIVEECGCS
Sequence of UniProt P22004 (P22004 382-513 limits assumed): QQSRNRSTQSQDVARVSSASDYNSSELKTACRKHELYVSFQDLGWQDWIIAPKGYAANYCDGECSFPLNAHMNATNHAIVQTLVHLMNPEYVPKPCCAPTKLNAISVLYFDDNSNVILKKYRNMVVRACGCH
Sequence of UniProt P01135 (P01135 40-89 limits assumed): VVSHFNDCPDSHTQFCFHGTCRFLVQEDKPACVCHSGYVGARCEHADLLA
Sequence of UniProt P05019 (P05019 49-118 limits assumed): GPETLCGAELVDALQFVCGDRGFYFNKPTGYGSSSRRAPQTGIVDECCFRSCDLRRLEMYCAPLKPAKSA
Sequence of UniProt P01137 (P01137 279-390 limits assumed): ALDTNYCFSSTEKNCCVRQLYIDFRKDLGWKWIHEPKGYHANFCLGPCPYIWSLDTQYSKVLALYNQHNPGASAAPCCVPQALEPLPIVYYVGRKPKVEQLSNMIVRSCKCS
Sequence of UniProt P12643 (P12643 283-396 limits assumed): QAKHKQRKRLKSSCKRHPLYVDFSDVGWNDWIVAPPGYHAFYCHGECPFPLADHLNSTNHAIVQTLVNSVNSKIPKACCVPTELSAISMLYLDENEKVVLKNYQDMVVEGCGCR
Sequence of UniProt P18075 (P18075 293-431 limits assumed): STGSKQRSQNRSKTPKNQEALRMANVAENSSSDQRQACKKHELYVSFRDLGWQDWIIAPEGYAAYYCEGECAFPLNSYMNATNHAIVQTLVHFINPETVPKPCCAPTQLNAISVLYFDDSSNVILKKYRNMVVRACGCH

As for “多克隆抗肌肉生长抑素抗体(R&D Systems，目录号AF788) (antibody)”, the 平均吸光度 (OD 490 nm) was 0.0485 OD 490 nm in [1]; 0.0445 OD 490 nm in [2]; 0.0525 OD 490 nm in experiment [3]; 0.0525 OD 490 nm in [4]; 0.0425 OD 490 nm in experiment [5]; 2.94 OD 490 nm in [6]. For the same substance, the 平均吸光度 (OD 490 nm) worked out at 0.0745 OD 490 nm in experiment [7]; 0.045 OD 490 nm in experiment [8]; 0.049 OD 490 nm in experiment [9]; 2.62 OD 490 nm in [10]; 0.042 OD 490 nm in experiment [11]; 0.038 OD 490 nm in [12].
